Test results reported in PMC2199947.

Target: receptor-type protein tyrosine phosphatase PTPmu (endogenous, MvLu mink lung cells) (mink (endogenous in MvLu))
Assay: co-IP

Substance	percent of the cadherin cleared from the lysate by immunoprecipitation of PTPmu
116-kD cadherin of MvLu cells (natural protein)	80%
130-kD cadherin of MvLu cells (natural protein)	80%
